Measured values published in the supplement of paper PMC9112550, “Optimization of the antimicrobial peptide Bac7 by deep mutational scanning” (BMC Biology, 2022).
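Note: peptides expressed intracellularly from a pBAD plasmid library in pooled LB shake-flask culture, induced with 0.3% L-arabinose, DNA abundance read by NGS, three biological replicates, DESeq2 with apeglm shrinkage.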

The sequences below were run on Escherichia coli TOP10 (assay: shrunken log2 fold change of peptide-encoding DNA abundance (4.5 h post-induction vs induction); higher = less antimicrobial activity (less host growth inhibition)). Conditions: time post-induction: 4.5 h; library: site-saturation at positions 5, 18, 19, 20.
For RRIRQRPPRLPRPRPRPMIKPRP, the “shrunken log2 fold change” value was -0.318. With RRIRARPPRLPRPRPRPKCEPRP the “shrunken log2 fold change” value was 0.367. In the case of RRIRERPPRLPRPRPRPEVNPRP, the “shrunken log2 fold change” value is reported as -0.0365. With RRIRPRPPRLPRPRPRPIYVPRP the “shrunken log2 fold change” value was -0.348. With RRIRVRPPRLPRPRPRPCQYPRP the “shrunken log2 fold change” value was -0.53. For RRIRYRPPRLPRPRPRPGVWPRP, the “shrunken log2 fold change” value was 0.171. For RRIRPRPPRLPRPRPRPNQMPRP, the “shrunken log2 fold change” value was -0.129. In the case of RRIRLRPPRLPRPRPRPKRHPRP, the “shrunken log2 fold change” value is reported as 0.208. With RRIRPRPPRLPRPRPRPGVMPRP the “shrunken log2 fold change” value was 0.0104. For RRIRKRPPRLPRPRPRPRFHPRP, the “shrunken log2 fold change” value was 0.077. For RRIRKRPPRLPRPRPRPYRFPRP, the “shrunken log2 fold change” value was -0.244. RRIRLRPPRLPRPRPRPKDSPRP was tested, and the “shrunken log2 fold change” value was -0.139. In the case of RRIRHRPPRLPRPRPRPPIHPRP, the “shrunken log2 fold change” value is reported as -0.639. With RRIRVRPPRLPRPRPRPYGMPRP the “shrunken log2 fold change” value was -0.0584. In the case of RRIRVRPPRLPRPRPRPWRWPRP, the “shrunken log2 fold change” value is reported as 0.48. RRIRSRPPRLPRPRPRPPLMPRP was tested, and the “shrunken log2 fold change” value was 0.129. In the case of RRIRFRPPRLPRPRPRPGRDPRP, the “shrunken log2 fold change” value is reported as 0.0984. RRIRPRPPRLPRPRPRPICLPRP was tested, and the “shrunken log2 fold change” value was 2.37. RRIRRRPPRLPRPRPRPQIMPRP was tested, and the “shrunken log2 fold change” value was -0.137. For RRIRFRPPRLPRPRPRPIWNPRP, the “shrunken log2 fold change” value was -0.147. For RRIRSRPPRLPRPRPRPQDLPRP, the “shrunken log2 fold change” value was -0.0949. In the case of RRIRFRPPRLPRPRPRPPVPPRP, the “shrunken log2 fold change” value is reported as 0.859. RRIRNRPPRLPRPRPRPVFDPRP was tested, and the “shrunken log2 fold change” value was -0.152. For RRIRNRPPRLPRPRPRPNRIPRP, the “shrunken log2 fold change” value was -0.233. For RRIRRRPPRLPRPRPRPHGYPRP, the “shrunken log2 fold change” value was 0.0169. In the case of RRIRMRPPRLPRPRPRPWVSPRP, the “shrunken log2 fold change” value is reported as -0.0423. With RRIRHRPPRLPRPRPRPYVWPRP the “shrunken log2 fold change” value was 0.0405. RRIRLRPPRLPRPRPRPNGAPRP was tested, and the “shrunken log2 fold change” value was 0.0311. In the case of RRIRMRPPRLPRPRPRPGMQPRP, the “shrunken log2 fold change” value is reported as -0.00144. RRIRIRPPRLPRPRPRPWFVPRP was tested, and the “shrunken log2 fold change” value was -0.578. With RRIRGRPPRLPRPRPRPAAKPRP the “shrunken log2 fold change” value was 1.02. RRIRNRPPRLPRPRPRPTGCPRP was tested, and the “shrunken log2 fold change” value was -0.0633. For RRIRHRPPRLPRPRPRPIFFPRP, the “shrunken log2 fold change” value was 0.0211. RRIRVRPPRLPRPRPRPACGPRP was tested, and the “shrunken log2 fold change” value was 0.122. With RRIRGRPPRLPRPRPRPARRPRP the “shrunken log2 fold change” value was 0.739. In the case of RRIRVRPPRLPRPRPRPCDNPRP, the “shrunken log2 fold change” value is reported as -0.418. With RRIRWRPPRLPRPRPRPAILPRP the “shrunken log2 fold change” value was 0.0915. RRIRYRPPRLPRPRPRPHTTPRP was tested, and the “shrunken log2 fold change” value was -0.0318. With RRIRPRPPRLPRPRPRPNWIPRP the “shrunken log2 fold change” value was -0.441. In the case of RRIRFRPPRLPRPRPRPYMHPRP, the “shrunken log2 fold change” value is reported as -0.72. RRIRLRPPRLPRPRPRPFMLPRP was tested, and the “shrunken log2 fold change” value was -0.356. For RRIRMRPPRLPRPRPRPRVQPRP, the “shrunken log2 fold change” value was 0.64. For RRIRWRPPRLPRPRPRPVGVPRP, the “shrunken log2 fold change” value was 0.297. RRIRYRPPRLPRPRPRPAMIPRP was tested, and the “shrunken log2 fold change” value was -0.229. RRIRMRPPRLPRPRPRPHGGPRP was tested, and the “shrunken log2 fold change” value was -0.0492. RRIRSRPPRLPRPRPRPSMQPRP was tested, and the “shrunken log2 fold change” value was -0.242. RRIRTRPPRLPRPRPRPTDRPRP was tested, and the “shrunken log2 fold change” value was -0.212. For RRIRDRPPRLPRPRPRPVQHPRP, the “shrunken log2 fold change” value was -0.012. RRIRFRPPRLPRPRPRPAAVPRP was tested, and the “shrunken log2 fold change” value was 0.169. With RRIRARPPRLPRPRPRPCYKPRP the “shrunken log2 fold change” value was -0.0942. With RRIRERPPRLPRPRPRPSCMPRP the “shrunken log2 fold change” value was -0.416. RRIRHRPPRLPRPRPRPYWRPRP was tested, and the “shrunken log2 fold change” value was -0.347. For RRIRGRPPRLPRPRPRPSHYPRP, the “shrunken log2 fold change” value was -0.0921. With RRIRSRPPRLPRPRPRPDCDPRP the “shrunken log2 fold change” value was 0.152. RRIRLRPPRLPRPRPRPDVLPRP was tested, and the “shrunken log2 fold change” value was -0.00959. With RRIRMRPPRLPRPRPRPYTVPRP the “shrunken log2 fold change” value was 0.0221. For RRIRSRPPRLPRPRPRPHIDPRP, the “shrunken log2 fold change” value was -0.369. For RRIRLRPPRLPRPRPRPGIVPRP, the “shrunken log2 fold change” value was -0.16. For RRIRYRPPRLPRPRPRPFIRPRP, the “shrunken log2 fold change” value was -0.942. With RRIRRRPPRLPRPRPRPETEPRP the “shrunken log2 fold change” value was 0.783. For RRIRDRPPRLPRPRPRPWAQPRP, the “shrunken log2 fold change” value was 0.18. For RRIRVRPPRLPRPRPRPMQMPRP, the “shrunken log2 fold change” value was -0.0841. In the case of RRIRRRPPRLPRPRPRPGCSPRP, the “shrunken log2 fold change” value is reported as 0.344. RRIRCRPPRLPRPRPRPEAIPRP was tested, and the “shrunken log2 fold change” value was 0.117. With RRIRSRPPRLPRPRPRPYNVPRP the “shrunken log2 fold change” value was 0.00567. In the case of RRIRSRPPRLPRPRPRPCFHPRP, the “shrunken log2 fold change” value is reported as -0.749. With RRIRPRPPRLPRPRPRPRNKPRP the “shrunken log2 fold change” value was -0.136. RRIRWRPPRLPRPRPRPAHIPRP was tested, and the “shrunken log2 fold change” value was -0.0509. For RRIRARPPRLPRPRPRPWYQPRP, the “shrunken log2 fold change” value was -0.287. For RRIRDRPPRLPRPRPRPPNDPRP, the “shrunken log2 fold change” value was 0.14. In the case of RRIRLRPPRLPRPRPRPNEEPRP, the “shrunken log2 fold change” value is reported as 0.00826. With RRIRQRPPRLPRPRPRPRPRPRP the “shrunken log2 fold change” value was 0.414. In the case of RRIRHRPPRLPRPRPRPESAPRP, the “shrunken log2 fold change” value is reported as 0.368. RRIRERPPRLPRPRPRPKQTPRP was tested, and the “shrunken log2 fold change” value was -0.0871. With RRIRDRPPRLPRPRPRPVLYPRP the “shrunken log2 fold change” value was -0.166.
